Data on seven molecules can be found in US20240352100A1 (AJOU UNIVERSITY INDUSTRY ACADEMIC COOPERATION FOUNDATION, published 2024).

In test [1] the target is β-catenin (endogenous, in colon cancer cell lines) (human) (UniProt P35222). Nature of the test: cell-based or functional assay.
The target of test [2] is T1, His8-Avi-tag-β-catenin (recombinant, biotinylated, from E. coli) (human, UniProt P35222 1-781, limits assumed, biotinylated (Avi-tag, co-expressed with pBirAcm in the presence of D-Biotin)).
T1 construct: also called purified β-catenin; recombinant antigen protein β-catenin; not shown: His8-Avi tag
T1 sequence (looked up): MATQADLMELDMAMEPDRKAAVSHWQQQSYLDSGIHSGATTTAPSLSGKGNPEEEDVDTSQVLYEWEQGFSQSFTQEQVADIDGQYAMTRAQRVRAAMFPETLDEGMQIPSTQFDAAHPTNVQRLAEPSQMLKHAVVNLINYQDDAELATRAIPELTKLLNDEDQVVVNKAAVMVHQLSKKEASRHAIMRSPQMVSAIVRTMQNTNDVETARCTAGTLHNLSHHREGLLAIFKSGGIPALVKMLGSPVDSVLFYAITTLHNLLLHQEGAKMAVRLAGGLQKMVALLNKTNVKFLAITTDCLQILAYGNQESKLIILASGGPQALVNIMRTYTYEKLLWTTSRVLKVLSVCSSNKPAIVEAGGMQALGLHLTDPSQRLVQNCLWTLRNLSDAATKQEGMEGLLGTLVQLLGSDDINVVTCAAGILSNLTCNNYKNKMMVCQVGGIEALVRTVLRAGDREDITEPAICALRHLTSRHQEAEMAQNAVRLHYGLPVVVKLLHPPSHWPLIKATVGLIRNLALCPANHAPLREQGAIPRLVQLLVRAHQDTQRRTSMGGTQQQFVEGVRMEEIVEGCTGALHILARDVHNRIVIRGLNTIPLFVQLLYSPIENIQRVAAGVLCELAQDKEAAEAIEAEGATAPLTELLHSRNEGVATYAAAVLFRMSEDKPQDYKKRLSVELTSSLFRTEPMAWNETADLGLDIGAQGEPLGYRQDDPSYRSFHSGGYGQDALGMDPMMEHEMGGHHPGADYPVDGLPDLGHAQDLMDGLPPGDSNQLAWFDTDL
Nature of the test: BLI (Octet QKe), antibody captured on AHC sensor, β-catenin 200-12.5 nM, 1:1 model.

The target in test [3] is T1, His8-Avi-tag-β-catenin (recombinant, …). Description: BLI (Octet QKe): antibody captured on AHC sensor, β-catenin at 200, 100, 50, 25, 12.5 nM, 1:1 binding model.

Changes are numbered by the printed parent chain.

In test [1], inBC2-(A6)-VHL152-213 (antibody) showed a β-catenin degradation activity (Western blot, HCT116, 2 µM, 12 h) of 25%.
Still for that read-out and setting: next, inBC2-(G5)-VHL152-213 (antibody): 5%.
Same read-out and setting: the same measure for inBC2-(G10)-VHL152-213 (antibody): 8%.
In test [1], inBC2-SOCS2153-198 (antibody) returned a β-catenin degradation ability (Western blot, three colon cancer cell lines) of 40% and a β-catenin degradation ability compared to inBC2-VHL152-213 (Western blot) (% higher than inBC2-VHL152-213) of 20.
With inBC2-VHL152-213 (antibody), in test [1], the decrease in the amount of β-catenin (Western blot, HCT116, with or without MLN4924 or Bortezomib) came to 30%; the β-catenin degradation activity (Western blot, DLD-1, 2 µM, 12 h) came out at 15%; the β-catenin degradation activity (Western blot, HCT116, 2 µM, 12 h) turned out to be 36%; the β-catenin degradation activity (Western blot, SW480, DLD-1, HCT116) came to 20%. Also, the β-catenin degradation activity over time (Western blot, DLD-1, 2 µM) in test [1] came to 25%.

B1: inBC0 (antibody, V domains shown)
VH: QVQLVESGGGVVQPGRSLRLSCAASGFTFSSYPMHWVRQAPGKGLEWVAVVSYDGSYKYYADSVKGRLTISRDNSKNTLYLQMNSLRAEDTAVYYCARATVRGVTKIRGVFDSWGRGALVTVSS
VL: DYQLTQSPSSLSASVGDRVTITCKSSQSLLNSRDGKNYLAWYQQKPGKAPKMLIYWASTRESGVPSRFSGSGSGTDFTLTISSLQPEDFATYFCQQYWYWMFTFGQGTKVEIKR
notes: Complete immunoglobulin made by putting the anti-β-catenin VH into inRas37; also called anti-β-catenin cytosol-penetrating interfering antibody inBC0
With B1, the Kd in test [2] stood at 5.75 nM. In addition, in test [3], the off-rate (koff) amounted to 0.000233 s⁻¹ and the kon came out at 40500 M⁻¹ s⁻¹.

B2: inBC2 (antibody, V domains shown)
VH: B1 VH with R116Q, A118T
VL: B1 VL
notes: Complete immunoglobulin; FR4 back-mutated form of inBC0; also called anti-β-catenin cytosol-penetrating interfering antibody inBC2; anti-β-catenin iMab
As to B2, the Kd in test [2] came to 4.92 nM. Also, in test [3], the koff stood at 0.000219 s⁻¹ and the kon was 44600 M⁻¹ s⁻¹.
